# Test results from paper PMC12136220.
# Target: human recombinant Hsp60 (human), P10809
# Test: cryo-EM structure; purified LAP mixed with Hsp60 at 2:1, incubated 4 h at 4°C; Titan Krios 300 kV with K3 detector, cryoSPARC; LAP-Hsp60 map refined in C1, Hsp60 alone in C7, LAP dimer in C2
# Details: remark: other sources report otherwise
binder,measurement,value
"human recombinant Hsp60, P10809 27-573 (natural protein) AKDVKFGADARALMLQGVDLLADAVAVTMGPKGRTVIIEQSWGSPKVTKDGVTVAKSIDLKDKYKNIGAKLVQDVANNTNEEAGDGTTTATVLARSIAKEGFEKISKGANPVEIRRGVMLAVDAVIAELKKQSKPVTTPEEIAQVATISANGDKEIGNIISDAMKKVGRKGVITVKDGKTLNDELEIIEGMKFDRGYISPYFINTSKGQKCEFQDAYVLLSEKKISSIQSIVPALEIANAHRKPLVIIAEDVDGEALSTLVLNRLKVGLQVVAVKAPGFGDNRKNQLKDMAIATGGAVFGEEGLTLNLEDVQPHDLGKVGEVIVTKDDAMLLKGKGDKAQIEKRIQEIIEQLDVTTSEYEKEKLNERLAKLSDGVAVLKVGGTSDVEVNEKKDRVTDALNATRAAVEEGIVLGGGCALLRCIPALDSLTPANEDQKIGIEIIKRTLKIPAMTIAKNAGVEGSLIVEKIMQSSSEVGYDAMAGDFVNMVEKGIIDPTKVVRTALLDAAGVASLLTTAEVVVTEIPKEEKDPGMGAMGGMGGGMGGGMF",stoichiometry N,7
